# Data reported in PMC7534572.
# Tests used:
# [1] = target: HpiI (Hymenoscyphus scutula); assay: crystal structure
# [2] = target: PdxI (Aspergillus bombycis); assay: crystal structure
stoichiometry N [1],stoichiometry N [2],Substance
2,,HpiI (enzyme)
,2,PdxI (enzyme)
